Biological target: the molecule itself
Test: Thioflavin T amyloid formation assay

B1: His-Lsm4^1–170 (domain or fragment)
chain: MLPLYLLTNAKGQQMQIELKNGEIIQGILTNVDNWMNLTLSNVTEYSEESAINSEDNAESSKAVKLNEIYIRGTFIKFIKLQDNIIDKVKQQINSNNNSNSNGPGHKRYYNNRDSNNNRGNYNRRNNNNGNSNRRPYSQNRQYNNSNSSNINNSINSINSNNQNMNNGLG
- binding result: binds
